From patent US20070020327A1
Like-named read-outs stand apart in the source and are kept apart here. Each block holds one binder with its values, some of them ahead of it.

How the values were obtained:
[1] = molecular target: HLA-B*0702 (human); assay: competition with 125I-labelled standard peptide for purified HLA-B*0702, gel filtration; details: scale: ratio
[2] = molecular target: HLA-A*0201 (human); assay: inhibition of 125I-labelled standard peptide binding to purified HLA-A*0201, gel filtration
[3] = molecular target: HLA-A*0203 (human); assay: inhibition of 125I-labelled standard peptide binding to purified HLA-A*0203, gel filtration
[4] = molecular target: HLA-A*0206 (human); assay: inhibition of 125I-labelled standard peptide binding to purified HLA-A*0206, gel filtration
[5] = molecular target: HLA-A*0202 (human); assay: inhibition of 125I-labelled standard peptide binding to purified HLA-A*0202, gel filtration; details: remark: other sources report otherwise
[6] = molecular target: HLA-A*1101 (human); assay: competition with 125I-labelled standard peptide 940.06 for purified HLA, gel filtration; details: scale: ratio
[7] = molecular target: HLA-A*0301 (human); assay: competition with 125I-labelled standard peptide 941.12 for purified HLA, gel filtration; details: scale: ratio
[8] = molecular target: HLA-A*0202 (human); assay: competition with 125I-labelled standard peptide on purified HLA, gel filtration
[9] = molecular target: HLA-A*0203 (human); assay: as above
[10] = molecular target: HLA-A*0206 (human); assay: as above
[11] = molecular target: HLA-A*0201 (human); assay: as above
[12] = molecular target: HLA-A*0202 (human); assay: competition with 125I-labelled standard peptide 941.01 for purified HLA, gel filtration; details: scale: ratio
[13] = molecular target: HLA-A*0206 (human); assay: as above; details: scale: ratio
[14] = molecular target: HLA-A*0201 (human); assay: as above; details: scale: ratio
[15] = molecular target: HLA-A*6802 (human); assay: competition with 125I-labelled standard peptide 1072.34 for purified HLA, gel filtration; details: scale: ratio
[16] = molecular target: HLA-A*1101 (human); assay: competition with a radiolabelled standard peptide on purified HLA-A*1101, gel filtration
[17] = molecular target: HLA-A*0203 (human); assay: competition with 125I-labelled standard peptide 941.01 for purified HLA, gel filtration; details: scale: ratio
[18] = molecular target: HLA-B*0702 (human); assay: competition with 125I-labelled standard peptide on purified HLA-B*0702, gel filtration; standard 1075.23 [..], […]
[19] = molecular target: HLA-A*0202 (human); assay: competition with 125I standard peptide for purified HLA; gel filtration; details: remark: other sources report otherwise
[20] = molecular target: HLA-A*0203 (human); assay: as above; details: remark: other sources report otherwise
[21] = remark: other sources report otherwise

Binder: MPEGDLVYV (modifications not checked) [PSM 169 …]
binding affinity ratio [1]: 0.0001

Binder: DTFPTDPIK (modifications not checked) [PAP 51 …]
binding affinity ratio [6]: 0.0001
binding affinity ratio [7]: 0.0001

Binder: LLLARAASLSL (modifications not checked) [peptide 63.0136 … (PAP.6)]
IC50 [8]: 3.1 nM
IC50 [9]: 5.3 nM
IC50 [10]: 80 nM
IC50 [11]: 8.1 nM

Binder: SLSLGFLFLV (modifications not checked) [peptide 1419.52 … (PAP.13.V10)]
IC50 [8]: 3.9 nM
IC50 [9]: 17 nM
IC50 [10]: 42 nM
IC50 [11]: 1.8 nM

Binder: YDAQKLLEK (modifications not checked) [PSM peptide … (position 300, 9 amino acids)]
binding affinity ratio (IC50 of standard peptide / IC50 of test peptide) [16]: 0.0002

Binder: GLPTQEPA (modifications not checked) [Kallikrein (hK2) peptide GLPTQEPA (position 140)]
binding affinity ratio [12]: 0.0003
binding affinity ratio [17]: -0.0001
binding affinity ratio [13]: -0.0001
binding affinity ratio [14]: -0.0001
binding affinity ratio [15]: -0.0001

Binder: DALFDIESK (modifications not checked) [PSM 710 …]
binding affinity ratio [6]: 0.0002
binding affinity ratio [7]: 0.0006

Binder: VTKFMLCAGR (modifications not checked) [PSA peptide … (position 188, 10 amino acids)]
binding affinity ratio (IC50 of standard peptide / IC50 of test peptide) [16, 21]: 0.012

Binder: HLLSNDMCV (modifications not checked) [Peptide 1418.20 … (HuK2.177.V9)]
IC50 [19]: 102 nM
IC50 [20]: 278 nM

Binder: FLFLLFFWV (modifications not checked) [peptide 60.0203 … (PAP.18.V9)]
IC50 [8, 21]: 307 nM
IC50 [9, 21]: 625 nM

Binder: HPQKVTKFML (modifications not checked) [PSA 184 …]
binding affinity ratio [1]: 0.023

Binder: GPLVCNGVL (modifications not checked) [Kallikrein 215 …]
binding affinity ratio [1]: 0.028

Binder: GPLVCNGVL (modifications not checked) [PSA 211 …]
binding affinity ratio [1]: 0.028

Binder: VLTAAHCIR (modifications not checked) [PSA peptide … (position 56, 9 amino acids)]
binding affinity ratio (IC50 of standard peptide / IC50 of test peptide) [16]: 0.0005

Binder: DMSLLKNR (modifications not checked) [PSA 98 DMSLLKNR]
binding affinity ratio [6]: 0.0001
binding affinity ratio [7]: 0.0003

Next, values leading:

binding affinity ratio (IC50 of standard peptide / IC50 of test peptide) [2, 21]: 0.0013
binding affinity ratio (IC50 of standard peptide / IC50 of test peptide) [3, 21]: 0.025
binding affinity ratio (IC50 of standard peptide / IC50 of test peptide) [4, 21]: 0.0002
binding affinity ratio (IC50 of standard peptide / IC50 of test peptide) [5]: 0.037
Binder: CAGRWTGGKST (modifications not checked) [… (PSA, position 194)]

binding affinity ratio [12]: -0.0005
binding affinity ratio [13]: 0.0008
binding affinity ratio [14]: -0.0001
binding affinity ratio [15]: -0.0002
Binder: VVKVLGLPT (modifications not checked) [… (Kallikrein, position 135, 9 amino acids)]

binding affinity ratio (IC50 of standard peptide / IC50 of test peptide) [2, 21]: 0.0074
binding affinity ratio (IC50 of standard peptide / IC50 of test peptide) [3, 21]: 0.02
binding affinity ratio (IC50 of standard peptide / IC50 of test peptide) [4, 21]: 0.003
Binder: CARAYSEKVT (modifications not checked) [… (Kallikrein, position 184)]

binding affinity ratio (IC50 of standard peptide / IC50 of test peptide) [2]: 0.0002
binding affinity ratio (IC50 of standard peptide / IC50 of test peptide) [3]: 0.002
binding affinity ratio (IC50 of standard peptide / IC50 of test peptide) [4]: 0.0009
Binder: CVSLHLLSNDM (modifications not checked) [… (Kallikrein, position 173)]

binding affinity ratio (IC50 of standard peptide / IC50 of test peptide) [18]: 0.02
Binder: TPKHNMKAFL (modifications not checked) [… (PSM, position 53, 10 amino acids)]

binding affinity ratio (IC50 of standard peptide / IC50 of test peptide) [2, 21]: 0.0008
binding affinity ratio (IC50 of standard peptide / IC50 of test peptide) [3, 21]: 0.0071
binding affinity ratio (IC50 of standard peptide / IC50 of test peptide) [4, 21]: 0.0016
Binder: CALPERPSLYT (modifications not checked) [… (PSA, position 230)]

binding affinity ratio (IC50 of standard peptide / IC50 of test peptide) [18]: 0.0001
Binder: TPGYPANEYA (modifications not checked) [… (PSM, position 269, 10 amino acids)]
